Test results as given in article PMC6599047, “Optimal composition and position of histidine-containing tags improves biodistribution of ^99mTc-labeled DARPin G3” (Scientific Reports, 2019).
Residue numbers refer to the chain shown, from its start.

B1: [99mTc]Tc(CO)3-G3-(HE)3 (DARPin G3 with a HEHEHE tag at the C-terminus) (designed binder)
chain: DLGKKLLEAARAGQDDEVRILMANGADVNAKDEYGLTPLYLATAHGHLEIVEVLLKNGADVNAVDAIGFTPLHLAAFIGHLEIAEVLLKHGADVNAQDKFGKTAFDISIGNGNEDLAEILQKLNGSHEHEHE
modifications: [99mTc]Tc(CO)3 on the histidine-containing tag (site-specific radiolabel)
notes: whole chain as printed (after removal of SUMO at QIGG/DLGKK); source: E. coli BL21(DE3), made as a His6-SUMO fusion, purified (HisTrap HP, cut with ULP1, HisTrap flow-through, MonoQ); not shown: (HE)3 (HEHEHE), C-terminal, kept
B2: [99mTc]Tc(CO)3-G3-H6 (DARPin G3 with a hexahistidine tag at the C-terminus) (designed binder)
chain: MDLGKKLLEAARAGQDDEVRILMANGADVNAKDEYGLTPLYLATAHGHLEIVEVLLKNGADVNAVDAIGFTPLHLAAFIGHLEIAEVLLKHGADVNAQDKFGKTAFDISIGNGNEDLAEILQKLNGSHHHHHH
modifications: [99mTc]Tc(CO)3 on the histidine-containing tag (site-specific radiolabel)
notes: whole chain as printed; source: E. coli BL21(DE3), purified (HisTrap HP, MonoQ); not shown: His6, C-terminal, kept
B3: [99mTc]Tc(CO)3-H6-G3 (DARPin G3 with a hexahistidine tag at the N-terminus) (designed binder)
chain: MRGSHHHHHHGSDLGKKLLEAARAGQDDEVRILMANGADVNAKDEYGLTPLYLATAHGHLEIVEVLLKNGADVNAVDAIGFTPLHLAAFIGHLEIAEVLLKHGADVNAQDKFGKTAFDISIGNGNEDLAEILQKLN
modifications: [99mTc]Tc(CO)3 on the histidine-containing tag (site-specific radiolabel)
notes: whole chain as printed; source: E. coli BL21(DE3), purified (HisTrap HP, MonoQ); not shown: His6, N-terminal, kept
B4: [99mTc]Tc(CO)3-(HE)3-G3 (DARPin G3 with a HEHEHE tag at the N-terminus) (designed binder)
chain: B3 chain with H6E, H8E, H10E
modifications: [99mTc]Tc(CO)3 on the histidine-containing tag (site-specific radiolabel)
notes: whole chain as printed; source: E. coli BL21(DE3), purified (HisTrap HP without imidazole in lysate and wash, MonoQ); not shown: (HE)3 (HEHEHE), N-terminal, kept

Molecular target: T1, human epidermal growth factor receptor (HER2) (human (endogenous in SKOV3, BT474, …, UniProt P04626 23-1255))
T1 construct: HER2, endogenous on the human cancer cell lines SKOV3, BT474 (high expression) and DU145 (low expression); source: endogenous, on living SKOV3, BT474 and DU145 cells
Experiment: radioligand binding; LigandTracer, real time, living SKOV3 cells, room temperature; 0.5 and 2 nM radiolabeled G3 variant, then medium replaced for dissociation; fitted to a one-to-two Langmuir binding model (TraceDrawer); duplicates
Conditions: one partner purified

| KD1 (high affinity interaction of the one-to-two fit) [pM] | KD2 (low affinity interaction of the one-to-two fit) [nM] | Binder |
| --- | --- | --- |
| 89 ± 11 | 1.8 ± 0.5 | B1 |
| 118 ± 38 | 2.5 ± 1.5 | B2 |
| 90 ± 5 | 3.3 ± 0.2 | B3 |
| 96 ± 3 | 1.2 ± 0.1 | B4 |
